In US20220168331A1, “PRR-Activating and MicroRNA-Inhibiting Molecules and Methods of Using Same” (Duke University, priority 2019, published 2022):
“Also recorded” adds a separate entry of the source.

Key:
[1] = system: PANC-02 (mouse pancreatic adenocarcinoma); experiment: IFN-β production and cell death in PANC-02 cells; type: cell-based; conditions: 0.6 μg/ml, DharmaFECT
Procedure: (§1) The antitumor effects of RigantmiR-21 are not limited to melanoma cells. KPC-4839 (mouse pancreatic ductal adenocarcinoma), PANC-02 (mouse pancreatic adenocarcinoma) and mouse sarcoma cell line cells were transfected with indicated ICR4, RigantmiR-21, mutant RigantmiR-21, or anti-miR-21 (0.6 μg/ml) using DharmaFECT (DF). After overnight incubation, IFN-β production by these cells was determined using ELSIA. (n=3). As shown in FIGS. 4A-4C, RigantmiR-21 treatments induced cell death and IFN-β production by mouse pancreatic, adenocarcinoma, and sarcoma cells that are also resistant to RIG-I agonist ICR4.

[2] = system: mouse pancreatic, adenocarcinoma, and sarcoma cells; experiment: Antitumor activities in mouse pancreatic cancer and sarcoma cells (overall statements); type: cell-based
Procedure: as §1

Mouse macrophage cells = experiment: IFN-β production by macrophages re-treated with PRR agonists with or without 1-MT and CH223191; type: cell-based; conditions: re-treatment with the same agonist in presence of mixture of 1-MT and CH223191; FIG. 10
Procedure: Mouse macrophage cells were treated with MDA5 agonists (pIC-HMW and pIC-LMW), RIG-I agonists (ICR4 and RigantmiR-21), and STING agonists (2′3′-cGAMP and c-di-GMP). After overnight incubation, the cells were replenished with fresh culture media and treated with the same agonists in the presence or absence of a mixture of 1-MT and CH223191. (n=3).

[3] = system: B16-F10 mouse melanoma cells; experiment: IFN-β production (ELISA) by B16-F10 cells; type: cell-based; conditions: transfected once or twice, 0.6 μg/ml, DharmaFECT, ELISA
Procedure: (§2) B16-F0 and B16-F10 mouse melanoma cells lines are originated from the same parental cell line but they have different metastatic ability. B16-F0 cell line has no or marginal metastatic ability but B16-F10 cell line has potent metastatic ability. B16-F0 and B16-F10 cells (1×10^4) were treated with RIG-I agonist ICR4-liposome complex (0.6 μg/ml). After overnight incubation, cytotoxicity and IFN-β production by the cells were measured using MTT assay and ELISA, respectively. […] Tumor suppressor proteins, such as programmed cell death 4 (PDCD4) and phosphatase and tensin homolog (PTEN), and pre-miR-21 levels in B16-F0 and B16-F10 cells were measured using real-time qPCR. […] It was hypothisized that miR-21 would interfere with antitumor effects of RIG-I agonists in B16-F10 melanoma cells.
(§3) To improve therapeutic effects of RIG-I agonists in B16-F10 cells, we designed and generated a novel RIG-I-activating RNA molecule (named RigantmiR-21) that is composed of a RIG-I-activating RNA structure (ICR4: 5′ppp-containg double stem-loop RNA) and a complementary sequence to mature miR-21. B16-F10 melanoma cells were transfected once or twice with RigantmiR-21, mutant RigantmiR-21, anti-miR-21, or ICR4 (0.6 μg/ml) using liposomal transfection agent DharmaFECT (DF). The expression of miR-21 target genes was determined using qPCR. IFN-β production was determined using ELISA. […] Anti-miR-21, ICR4, and RigantmiR-21 RNAs were complexed with in vivo transfection agent jet-PEI. Jet-PEI alone or RNA-jet-PEI complexes (25 μg) were injected thrice intratumorally into B16-F10 melanoma-bearing immunocompetent mice. (n=6).
Additionally, conjugation of anti-miR-21 improved the ability of other types of RIG-I agonists, such as ICR2 and ICR2AS^4 (sequences shown in FIG. 6A) to induce IFN-β production by cancer cells.

B16-F10 melanoma = experiment: Survival of B16-F10 melanoma-bearing immunocompetent mice after intratumoral RNA-jet-PEI injections; type: in vivo, mouse; conditions: RNA-jet-PEI complexes 25 μg injected thrice intratumorally
Procedure: as §3

[4] = system: 4T1 mouse breast cancer cells, B16-F10 mouse melanoma cells, 403688 mouse sarcoma cells, and WM266.4 human melanoma cells; experiment: IFN-β production (ELISA) by different cancer cells after first and second transfection with RIG-I agonists; type: cell-based; conditions: DharmaFECT, one day after first and second transfection; FIG. 11
Procedure: 4T1 mouse breast cancer cells, B16-F10 mouse melanoma cells, 403688 mouse sarcoma cells, and WM266.4 human melanoma cells were transfected with indicated RIG-I agonists using liposomal transfection agent DharmaFECT (DF). After overnight incubation, the cells was replenished with fresh culture media, followed by another transfection with the same RIG-I agonists. One day after first and second transfection IFN-β production by these cells were determined using ELSIA.

[5] = system: B16-F0 mouse melanoma cells; experiment: IFN-β production (ELISA) by B16-F0 cells; type: cell-based; conditions: 12.5 nM, DharmaFECT, one day after first and second transfection, ELISA
Procedure: as §2
B16-F0 mouse melanoma cells were transfected with ICR4, RigantmiR-21, mutant RigantmiR-21, or anti-miR-21 at 12.5 nM using DharmaFECT (DF). After overnight incubation, the cells were replenished with fresh culture media, followed by another transfection with the same dose of RNAs. One day after the first and second transfection, IFN-β production by these cells were determined using ELSIA.
B16-F0 mouse melanoma cells or bone marrow-derived dendritic cells (BM-DCs) were transfected once (x1) or twice (x2) with a complex of polyI:C (pIC) (0.6 μg/ml) and transfection agent jet-PEI. IFN-β production by the cells one day after each transfection was determined using ELISA.

miR-21 = experiment: Expression of premiR-21 and miR-21 target genes (qPCR) in B16-F10 melanoma cells; type: cell-based, mouse; conditions: 0.6 μg/ml, DharmaFECT
Procedure: as §3

[6] = system: B16-F0 mouse melanoma cells; experiment: Cytotoxicity (MTT assay) in B16-F0 cells; type: cell-based; conditions: two transfections at various concentrations, DharmaFECT, MTT three days after first transfection
Procedure: as §2
B16-F0 mouse melanoma cells were transfected with ICR4, RigantmiR-21, mutant RigantmiR-21, or anti-miR-21 at various concentrations using DharmaFECT (DF). After overnight incubation, the cells were replenished with fresh culture media, followed by another transfection with the same dose of RNAs. Three days after the first transfection, cytotoxicity levels were measured using MTT assay.

[7] = system: KPC-4839 (mouse pancreatic ductal adenocarcinoma); experiment: IFN-β production and cell death in KPC-4839 cells; type: cell-based; conditions: 0.6 μg/ml, DharmaFECT
Procedure: as §1

[8] = system: mouse sarcoma cell line cells; experiment: IFN-β production and cell death in mouse sarcoma cell line; type: cell-based; conditions: 0.6 μg/ml, DharmaFECT
Procedure: as §1

402230 sarcoma = experiment: Survival of 402230 sarcoma-bearing immunocompetent mice; type: in vivo, mouse; conditions: RigantmiR-21 1 mg/kg with jetPEI intratumorally once daily for three days, anti-PD-1 intraperitoneally twice at 7-day interval
Procedure: Murine sarcoma 402230 cell line was treated single with RigantmiR-21 ([…]) in complex with liposome. IFN-β production 24 h after treatment (FIG. 12A) and cytotoxicity 72 h after treatment (FIG. 12B) were measured using ELISA and MTT assay, respectively. N=3. 402230 sarcoma-bearing immunocompetent mice were injected intratumorally once daily for three days with RigantmiR-21 (1 mg/kg) in complex with in vivo transfection agent jetPEI, N=5. (FIG. 12C). Sarcoma-bearing mice were also injected intraperitoneally twice at 7-day interval with anti-PD-1. jetPEI alone and jetPEI with isotype control antibody were used as control.

B1: RigantmiR-21: nuclease-resistant RNA composed of RIG-I-activating structure ICR4 and a complementary sequence to mature miR-21; SEQ ID NO: 2 (nucleic acid)
chain: GGAUGCGGUACCUGACAGCAUCUUGAAAUAAGGACUGAUGCUCAACAUCAGUCUGAUAAGCUA
modifications: nuclease-resistant RNA, modifications not given here
cell death [1]: induced | IFN-β production ([1]; overnight, ELISA): induced | antitumor activities relative to MDA5 agonist polyI:C ([2]; FIGS. 4A-4C): comparable | IFN-β production by mouse pancreatic cancer cells and sarcoma ([2]; figure legend FIGS. 4A-4C): improves | IFN-β production with IDO inhibitor and AHR inhibitor co-treatment compared to PRR agonist alone (Mouse macrophage cells): enhanced | IFN-β production compared to ICR4 and mutant RigantmiR-21 [3]: significantly increased | survival compared to repeated injections with ICR4 or anti-miR-21 (B16-F10 melanoma): significantly improved the survival | IFN-β production by different cancer cells [4]: differentially induce | IFN-β production after first and second transfection [5]: incremental; also recorded: significantly increased | IFN-β production after first and second transfection ([5]; listed as RignatmiR-21): gradually increase | expression of premiR-21 (miR-21): inhibited | miR-21 target gene (PTEN) expression (miR-21): upregulated | cytotoxic effects after repeated treatments [6]: gradually augmented; also recorded: significantly increased | cell death [7]: induced | IFN-β production ([7]; overnight, ELISA): induced | cell death [8]: induced | IFN-β production ([8]; overnight, ELISA): induced | survival, RigantmiR-21 and anti-PD-1 antibody compared to RigantmiR-21 alone (402230 sarcoma): significantly improved survival | survival, RigantmiR-21 and anti-PD-1 antibody compared to RigantmiR-21 alone (402230 sarcoma; listed as RignatmiR-21): synergizes
